# US5939263
# Target: murine neuropeptide Y Yx receptor (murine)
# Assay: displacement of ^125 I-PYY (90 pM) from membranes of COS-7 cells transfected with the murine NPY Yx receptor
row,Substance,IC50 [nM]
1,NPY(2-36) (peptide),16
2,NPY(13-36) (peptide),134
3,peptide YY,14

# Substances with a lower IC50, results first:
row,IC50 [nM],Substance
1,9,"Leu^31, Pro^34 !NPY (peptide)"
2,6,Neuropeptide Y
